# “And” between values parts separate entries of the source, which are not always exact repeats. Equal values may be shown once.
# T1: ALPL with a deletion of the ER localization signal (ALPL transcript variant 2, NM_001127501) (human, UniProt P05186 56-501)
# T1 sequence: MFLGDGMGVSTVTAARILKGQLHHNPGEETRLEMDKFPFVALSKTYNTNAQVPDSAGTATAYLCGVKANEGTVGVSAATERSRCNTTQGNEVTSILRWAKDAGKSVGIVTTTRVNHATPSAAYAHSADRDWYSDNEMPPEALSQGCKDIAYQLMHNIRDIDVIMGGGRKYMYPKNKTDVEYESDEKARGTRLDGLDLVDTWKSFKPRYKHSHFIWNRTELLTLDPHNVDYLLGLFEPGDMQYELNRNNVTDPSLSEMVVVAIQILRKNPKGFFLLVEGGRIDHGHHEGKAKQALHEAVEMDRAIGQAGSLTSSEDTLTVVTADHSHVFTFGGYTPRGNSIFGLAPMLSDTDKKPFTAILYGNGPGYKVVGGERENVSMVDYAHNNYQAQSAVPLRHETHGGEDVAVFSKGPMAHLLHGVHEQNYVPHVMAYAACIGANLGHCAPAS
# T2: human ALPL expressed on cells (alkaline phosphatase tissue-nonspecific isozyme, NM_000478.4) (human, UniProt P05186 18-501)
# T2 sequence: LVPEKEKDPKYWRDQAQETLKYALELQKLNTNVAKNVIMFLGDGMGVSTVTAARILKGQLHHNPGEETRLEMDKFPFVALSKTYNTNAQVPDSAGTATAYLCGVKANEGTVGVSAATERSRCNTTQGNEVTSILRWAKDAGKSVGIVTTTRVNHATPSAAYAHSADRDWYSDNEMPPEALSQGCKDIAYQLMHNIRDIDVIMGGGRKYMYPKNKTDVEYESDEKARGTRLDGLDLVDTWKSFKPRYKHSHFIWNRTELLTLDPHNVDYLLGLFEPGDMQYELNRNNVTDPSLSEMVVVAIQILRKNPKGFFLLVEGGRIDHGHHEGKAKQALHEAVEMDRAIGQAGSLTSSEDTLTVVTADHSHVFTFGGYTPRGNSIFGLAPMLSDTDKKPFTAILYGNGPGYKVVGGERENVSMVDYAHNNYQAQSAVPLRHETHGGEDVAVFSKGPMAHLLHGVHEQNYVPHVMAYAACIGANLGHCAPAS
# T3: murine ALPL ortholog expressed on HEK 293T cells (NM_001287172.1) (mouse, UniProt P09242 18-501)
# T3 sequence: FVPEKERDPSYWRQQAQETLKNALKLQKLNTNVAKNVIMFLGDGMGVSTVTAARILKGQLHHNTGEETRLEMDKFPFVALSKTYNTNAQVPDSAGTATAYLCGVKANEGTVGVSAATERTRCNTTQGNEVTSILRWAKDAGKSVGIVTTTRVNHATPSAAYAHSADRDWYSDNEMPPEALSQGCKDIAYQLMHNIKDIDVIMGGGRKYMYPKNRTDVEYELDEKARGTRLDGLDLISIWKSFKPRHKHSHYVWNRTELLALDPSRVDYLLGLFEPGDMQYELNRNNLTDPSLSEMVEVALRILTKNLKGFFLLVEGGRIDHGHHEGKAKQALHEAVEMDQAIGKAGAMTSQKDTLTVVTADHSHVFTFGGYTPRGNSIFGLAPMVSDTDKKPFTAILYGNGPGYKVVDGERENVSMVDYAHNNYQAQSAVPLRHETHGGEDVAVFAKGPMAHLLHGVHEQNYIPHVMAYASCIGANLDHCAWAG
# T4: cynomolgus ALPL ortholog expressed on HEK 293T cells (XM_005544525) (Macaca fascicularis)
# T4 chain: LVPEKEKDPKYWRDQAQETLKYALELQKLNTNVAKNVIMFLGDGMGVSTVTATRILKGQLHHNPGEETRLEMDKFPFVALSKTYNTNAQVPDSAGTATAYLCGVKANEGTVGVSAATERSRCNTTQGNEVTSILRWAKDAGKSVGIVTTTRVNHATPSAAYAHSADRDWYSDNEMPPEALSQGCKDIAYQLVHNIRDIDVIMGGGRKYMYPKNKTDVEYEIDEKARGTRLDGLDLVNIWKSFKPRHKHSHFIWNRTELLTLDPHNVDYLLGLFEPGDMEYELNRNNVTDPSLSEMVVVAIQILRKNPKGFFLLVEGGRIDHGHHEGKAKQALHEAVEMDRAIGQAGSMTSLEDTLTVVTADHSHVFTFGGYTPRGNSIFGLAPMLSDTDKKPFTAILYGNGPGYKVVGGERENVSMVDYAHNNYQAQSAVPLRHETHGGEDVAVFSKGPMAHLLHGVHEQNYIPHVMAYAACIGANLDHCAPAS
# T5: His-tagged ALPL (recombinant, soluble; SPR, BLI and ELISA of Examples 8 and 13) (UniProt P05186 18-502)
# T5 sequence: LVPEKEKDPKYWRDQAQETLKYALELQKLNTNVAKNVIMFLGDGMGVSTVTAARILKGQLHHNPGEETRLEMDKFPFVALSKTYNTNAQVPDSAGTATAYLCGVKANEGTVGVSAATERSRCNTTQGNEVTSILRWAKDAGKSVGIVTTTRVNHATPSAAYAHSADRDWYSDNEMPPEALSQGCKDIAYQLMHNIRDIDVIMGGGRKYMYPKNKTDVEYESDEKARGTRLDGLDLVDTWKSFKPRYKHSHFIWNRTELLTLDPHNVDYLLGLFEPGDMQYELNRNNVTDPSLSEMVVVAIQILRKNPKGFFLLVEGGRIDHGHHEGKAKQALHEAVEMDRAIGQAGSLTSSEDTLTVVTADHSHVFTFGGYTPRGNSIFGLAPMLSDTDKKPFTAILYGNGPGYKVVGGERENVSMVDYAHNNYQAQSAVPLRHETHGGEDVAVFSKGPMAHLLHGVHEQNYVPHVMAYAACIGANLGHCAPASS
# B1: TTM-002 capsid variant (AAV particle comprising the TTM-002 AAV9 capsid variant) (other)
# chain 1: MAADGYLPDWLEDNLSEGIREWWALKPGAPQPKANQQHQDNARGLVLPGYKYLGPGNGLDKGEPVNAADAAALEHDKAYDQQLKAGDNPYLKYNHADAEFQERLKEDTSFGGNLGRAVFQAKKRLLEPLGLVEEAAKTAPGKKRPVEQSPQEPDSSAGIGKSGAQPAKKRLNFGQTGDTESVPDPQPIGEPPAAPSGVGSLTMASGGGAPVADNNEGADGVGSSSGNWHCDSQWLGDRVITTSTRTWALPTYNNHLYKQISNSTSGGSSNDNAYFGYSTPWGYFDFNRFHCHFSPRDWQRLINNNWGFRPKRLNFKLFNIQVKEVTDNNGVKTIANNLTSTVQVFTDSDYQLPYVLGSAHEGCLPPFPADVFMIPQYGYLTLNDGSQAVGRSSFYCLEYFPSQMLRTGNNFQFSYEFENVPFHSSYAHSQSLDRLMNPLIDQYLYYLSKTINGHDSPHKSGQNQQTLKFSVAGPSNMAVQGRNYIPGPSYRQQRVSTTVTQNNNSEFAWPGASSWALNGRNSLMNPGPAMASHKEGEDRFFPLSGSLIFGKQGTGRDNVDADKVMITNEEEIKTTNPVATESYGQVATNHQSAQAQAQTGWVQNQGILPGMVWQDRDVYLQGPIWAKIPHTDGNFHPSPLMGGFGMKHPPPQILIKNTPVPADPPTAFNKDKLNSFITQYSTGQVSVEIEWELQKENSKRWNPEIQYTSNYYKSNNVEFAVNTEGVYSEPRPIGTRYLTRNL
# chain 2: TAPGKKRPVEQSPQEPDSSAGIGKSGAQPAKKRLNFGQTGDTESVPDPQPIGEPPAAPSGVGSLTMASGGGAPVADNNEGADGVGSSSGNWHCDSQWLGDRVITTSTRTWALPTYNNHLYKQISNSTSGGSSNDNAYFGYSTPWGYFDFNRFHCHFSPRDWQRLINNNWGFRPKRLNFKLFNIQVKEVTDNNGVKTIANNLTSTVQVFTDSDYQLPYVLGSAHEGCLPPFPADVFMIPQYGYLTLNDGSQAVGRSSFYCLEYFPSQMLRTGNNFQFSYEFENVPFHSSYAHSQSLDRLMNPLIDQYLYYLSKTINGHDSPHKSGQNQQTLKFSVAGPSNMAVQGRNYIPGPSYRQQRVSTTVTQNNNSEFAWPGASSWALNGRNSLMNPGPAMASHKEGEDRFFPLSGSLIFGKQGTGRDNVDADKVMITNEEEIKTTNPVATESYGQVATNHQSAQAQAQTGWVQNQGILPGMVWQDRDVYLQGPIWAKIPHTDGNFHPSPLMGGFGMKHPPPQILIKNTPVPADPPTAFNKDKLNSFITQYSTGQVSVEIEWELQKENSKRWNPEIQYTSNYYKSNNVEFAVNTEGVYSEPRPIGTRYLTRNL
# chain 3: MASGGGAPVADNNEGADGVGSSSGNWHCDSQWLGDRVITTSTRTWALPTYNNHLYKQISNSTSGGSSNDNAYFGYSTPWGYFDFNRFHCHFSPRDWQRLINNNWGFRPKRLNFKLFNIQVKEVTDNNGVKTIANNLTSTVQVFTDSDYQLPYVLGSAHEGCLPPFPADVFMIPQYGYLTLNDGSQAVGRSSFYCLEYFPSQMLRTGNNFQFSYEFENVPFHSSYAHSQSLDRLMNPLIDQYLYYLSKTINGHDSPHKSGQNQQTLKFSVAGPSNMAVQGRNYIPGPSYRQQRVSTTVTQNNNSEFAWPGASSWALNGRNSLMNPGPAMASHKEGEDRFFPLSGSLIFGKQGTGRDNVDADKVMITNEEEIKTTNPVATESYGQVATNHQSAQAQAQTGWVQNQGILPGMVWQDRDVYLQGPIWAKIPHTDGNFHPSPLMGGFGMKHPPPQILIKNTPVPADPPTAFNKDKLNSFITQYSTGQVSVEIEWELQKENSKRWNPEIQYTSNYYKSNNVEFAVNTEGVYSEPRPIGTRYLTRNL
# Legend:
# [1] = target: T1, ALPL with a deletion of the ER …; assay: cell-based or functional assay
# [2] = target: T2, human ALPL expressed on cells (alkaline …); assay: cell-based or functional assay
# [3] = target: T2, human ALPL expressed on cells (alkaline …); assay: cell-based or functional assay; remark: listed apart in the source
# [4] = target: T3, murine ALPL ortholog expressed on HEK …; assay: cell-based or functional assay
# [5] = target: T4, cynomolgus ALPL ortholog expressed on …; assay: cell-based or functional assay
# [6] = target: T5, His-tagged ALPL (recombinant, soluble; …)
binder,measurement,setting,value
B1,fold change in luciferase activity relative to the pCMV6 control cells (cells transfected with ALPL comprising a deletion of the ER localization signal),[1],2 fold
same,fold change in luciferase activity relative to the pCMV6 control cells (cells transfected with ALPL),[2],24 fold
same,fold change in luciferase activity relative to the pCMV6 control cells (Human ALPL),[3],60.3 fold
same,fold change in luciferase activity relative to the pCMV6 control cells (Murine ALPL),[4],57.2 fold
same,fold change in luciferase activity relative to the pCMV6 control cells (Cynomolgus ALPL),[5],81.5 fold
same,Kd,[6],0.032 µM and 0.0268 µM and 0.047 µM and 0.0523 µM
same,kon,[6],39800 M⁻¹ s⁻¹ and 43600 M⁻¹ s⁻¹ and 39400 M⁻¹ s⁻¹ and 98000 M⁻¹ s⁻¹

# Reference: patent publication US20260250318A1, “COMPOSITIONS AND METHODS FOR CROSSING THE BLOOD BRAIN BARRIER” (VOYAGER THERAPEUTICS, INC., priority 2022, published 2026)
